Data on one molecule can be found in US20080103095A1 (HEALTH RESEARCH, published 2008).

The experiment has as its target T1, native hsp110 from murine tumor cells (Colon26 / colon 26, Meth A) and liver (mouse (murine colon 26 tumor), UniProt Q61699 2-858, limits assumed).
T1 construct: Native protein in cell extracts or chromatographic fractions; also called heat shock protein 110
Briefly: immunoblot of the purified native hsp110 fraction (ion exchange and size exclusion) from Colon26 cells.

T1 sequence (Q61699 2-858 limits assumed): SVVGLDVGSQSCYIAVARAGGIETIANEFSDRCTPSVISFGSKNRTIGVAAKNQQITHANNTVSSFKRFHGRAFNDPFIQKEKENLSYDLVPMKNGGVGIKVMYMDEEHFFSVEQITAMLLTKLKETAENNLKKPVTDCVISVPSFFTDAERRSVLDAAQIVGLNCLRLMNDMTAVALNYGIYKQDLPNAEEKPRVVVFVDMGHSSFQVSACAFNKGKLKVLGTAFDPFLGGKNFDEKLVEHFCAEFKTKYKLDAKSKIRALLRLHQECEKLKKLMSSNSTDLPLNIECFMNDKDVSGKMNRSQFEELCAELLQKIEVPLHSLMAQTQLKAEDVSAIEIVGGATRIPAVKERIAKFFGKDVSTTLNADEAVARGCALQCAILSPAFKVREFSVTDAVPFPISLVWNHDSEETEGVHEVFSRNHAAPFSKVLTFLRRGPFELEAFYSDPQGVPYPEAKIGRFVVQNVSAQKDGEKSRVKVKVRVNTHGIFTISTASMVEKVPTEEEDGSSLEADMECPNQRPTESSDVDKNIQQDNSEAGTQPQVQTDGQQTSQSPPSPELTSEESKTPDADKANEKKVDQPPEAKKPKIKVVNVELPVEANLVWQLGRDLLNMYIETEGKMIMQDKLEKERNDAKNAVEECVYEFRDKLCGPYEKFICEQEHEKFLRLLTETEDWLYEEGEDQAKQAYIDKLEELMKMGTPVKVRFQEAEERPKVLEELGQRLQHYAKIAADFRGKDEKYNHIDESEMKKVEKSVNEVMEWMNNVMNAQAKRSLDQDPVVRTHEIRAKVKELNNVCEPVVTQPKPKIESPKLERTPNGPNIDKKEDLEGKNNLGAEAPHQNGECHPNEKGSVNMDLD

B1: T-complex polypeptide1 (TCP-1) in Colon26 cells (other)
chain: not shown
As for B1, the binding result is recorded as “no binding”.
